The values that follow come from patent US20210388087A1.

This test has as its target Human CD137 ECD (human). The test is described as follows: Biacore SPR, vs parent H183/L072. (In general: SPR reads the build-up and loss of mass on a sensor chip optically.)

Human CD137 ECD (human), sequence (chain, as listed by the source limits assumed): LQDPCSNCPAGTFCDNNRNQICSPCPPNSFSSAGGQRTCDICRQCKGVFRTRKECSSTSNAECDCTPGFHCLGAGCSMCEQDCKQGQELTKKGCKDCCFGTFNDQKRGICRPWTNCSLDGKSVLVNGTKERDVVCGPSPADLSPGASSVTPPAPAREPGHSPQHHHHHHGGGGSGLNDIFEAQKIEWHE

B1: H183/L072 VL H34N (antibody, name in Kabat numbering, V domains shown)
VH: QVQLVESGGGLVQPGRSLRLSCAASGFTFSNAWMHWVRQAPGKGLEWVAQIKDKGNAYAAYYAPSVKGRFTISRDDSKNSIYLQMNSLKTEDTAVYYCHYVHYASASTVLPAFGVDAWGQGTTVTVSS
VL: DIVMTQSPLSLPVTPGEPASISCQASQELVHMNRNTYLNWYQQKPGQAPRLLIYKVSNRFPGVPDRFSGSGSGTDFTLKISRVEAEDVGVYYCAQGTSVPFTFGQGTKLEIK
Regarding B1, the fold change of affinity worked out at 0 fold.

B2: H183/L072 VL Q24E (antibody, name in Kabat numbering, V domains shown)
VH: QVQLVESGGGLVQPGRSLRLSCAASGFTFSNAWMHWVRQAPGKGLEWVAQIKDKGNAYAAYYAPSVKGRFTISRDDSKNSIYLQMNSLKTEDTAVYYCHYVHYASASTVLPAFGVDAWGQGTTVTVSS
VL: DIVMTQSPLSLPVTPGEPASISCEASQELVHMNRNTYLHWYQQKPGQAPRLLIYKVSNRFPGVPDRFSGSGSGTDFTLKISRVEAEDVGVYYCAQGTSVPFTFGQGTKLEIK
For the molecule B2, the fold change of affinity turned out to be 0 fold.

B3: H183/L072 VL Y32D (antibody, name in Kabat numbering, V domains shown)
VH: QVQLVESGGGLVQPGRSLRLSCAASGFTFSNAWMHWVRQAPGKGLEWVAQIKDKGNAYAAYYAPSVKGRFTISRDDSKNSIYLQMNSLKTEDTAVYYCHYVHYASASTVLPAFGVDAWGQGTTVTVSS
VL: DIVMTQSPLSLPVTPGEPASISCQASQELVHMNRNTDLHWYQQKPGQAPRLLIYKVSNRFPGVPDRFSGSGSGTDFTLKISRVEAEDVGVYYCAQGTSVPFTFGQGTKLEIK
Consider B3, for which the fold change of affinity amounted to 0 fold.

B4: H183/L072 VL Y32S (antibody, name in Kabat numbering, V domains shown)
VH: QVQLVESGGGLVQPGRSLRLSCAASGFTFSNAWMHWVRQAPGKGLEWVAQIKDKGNAYAAYYAPSVKGRFTISRDDSKNSIYLQMNSLKTEDTAVYYCHYVHYASASTVLPAFGVDAWGQGTTVTVSS
VL: DIVMTQSPLSLPVTPGEPASISCQASQELVHMNRNTSLHWYQQKPGQAPRLLIYKVSNRFPGVPDRFSGSGSGTDFTLKISRVEAEDVGVYYCAQGTSVPFTFGQGTKLEIK
For the molecule B4, the fold change of affinity stood at 0 fold.

B5: H183/L072 VL L33S (antibody, name in Kabat numbering, V domains shown)
VH: QVQLVESGGGLVQPGRSLRLSCAASGFTFSNAWMHWVRQAPGKGLEWVAQIKDKGNAYAAYYAPSVKGRFTISRDDSKNSIYLQMNSLKTEDTAVYYCHYVHYASASTVLPAFGVDAWGQGTTVTVSS
VL: DIVMTQSPLSLPVTPGEPASISCQASQELVHMNRNTYSHWYQQKPGQAPRLLIYKVSNRFPGVPDRFSGSGSGTDFTLKISRVEAEDVGVYYCAQGTSVPFTFGQGTKLEIK
Consider B5, for which the fold change of affinity was 0 fold.

B6: H183/L072 VL H34S (antibody, name in Kabat numbering, V domains shown)
VH: QVQLVESGGGLVQPGRSLRLSCAASGFTFSNAWMHWVRQAPGKGLEWVAQIKDKGNAYAAYYAPSVKGRFTISRDDSKNSIYLQMNSLKTEDTAVYYCHYVHYASASTVLPAFGVDAWGQGTTVTVSS
VL: DIVMTQSPLSLPVTPGEPASISCQASQELVHMNRNTYLSWYQQKPGQAPRLLIYKVSNRFPGVPDRFSGSGSGTDFTLKISRVEAEDVGVYYCAQGTSVPFTFGQGTKLEIK
On to B6, for which the fold change of affinity turned out to be 0 fold.

B7: H183/L072 VL A25H (antibody, name in Kabat numbering, V domains shown)
VH: QVQLVESGGGLVQPGRSLRLSCAASGFTFSNAWMHWVRQAPGKGLEWVAQIKDKGNAYAAYYAPSVKGRFTISRDDSKNSIYLQMNSLKTEDTAVYYCHYVHYASASTVLPAFGVDAWGQGTTVTVSS
VL: DIVMTQSPLSLPVTPGEPASISCQHSQELVHMNRNTYLHWYQQKPGQAPRLLIYKVSNRFPGVPDRFSGSGSGTDFTLKISRVEAEDVGVYYCAQGTSVPFTFGQGTKLEIK
As for B7, the fold change of affinity was found to be 0 fold.

B8: H183/L072 VL Y32K (antibody, name in Kabat numbering, V domains shown)
VH: QVQLVESGGGLVQPGRSLRLSCAASGFTFSNAWMHWVRQAPGKGLEWVAQIKDKGNAYAAYYAPSVKGRFTISRDDSKNSIYLQMNSLKTEDTAVYYCHYVHYASASTVLPAFGVDAWGQGTTVTVSS
VL: DIVMTQSPLSLPVTPGEPASISCQASQELVHMNRNTKLHWYQQKPGQAPRLLIYKVSNRFPGVPDRFSGSGSGTDFTLKISRVEAEDVGVYYCAQGTSVPFTFGQGTKLEIK
As for B8, the fold change of affinity came to 0 fold.

B9: H183/L072 VL Y32T (antibody, name in Kabat numbering, V domains shown)
VH: QVQLVESGGGLVQPGRSLRLSCAASGFTFSNAWMHWVRQAPGKGLEWVAQIKDKGNAYAAYYAPSVKGRFTISRDDSKNSIYLQMNSLKTEDTAVYYCHYVHYASASTVLPAFGVDAWGQGTTVTVSS
VL: DIVMTQSPLSLPVTPGEPASISCQASQELVHMNRNTTLHWYQQKPGQAPRLLIYKVSNRFPGVPDRFSGSGSGTDFTLKISRVEAEDVGVYYCAQGTSVPFTFGQGTKLEIK
For the molecule B9, the fold change of affinity was 0 fold.

B10: H183/L072 VL H34D (antibody, name in Kabat numbering, V domains shown)
VH: QVQLVESGGGLVQPGRSLRLSCAASGFTFSNAWMHWVRQAPGKGLEWVAQIKDKGNAYAAYYAPSVKGRFTISRDDSKNSIYLQMNSLKTEDTAVYYCHYVHYASASTVLPAFGVDAWGQGTTVTVSS
VL: DIVMTQSPLSLPVTPGEPASISCQASQELVHMNRNTYLDWYQQKPGQAPRLLIYKVSNRFPGVPDRFSGSGSGTDFTLKISRVEAEDVGVYYCAQGTSVPFTFGQGTKLEIK
Regarding B10, the fold change of affinity worked out at 0 fold.

B11: H183/L072 VL H34Q (antibody, name in Kabat numbering, V domains shown)
VH: QVQLVESGGGLVQPGRSLRLSCAASGFTFSNAWMHWVRQAPGKGLEWVAQIKDKGNAYAAYYAPSVKGRFTISRDDSKNSIYLQMNSLKTEDTAVYYCHYVHYASASTVLPAFGVDAWGQGTTVTVSS
VL: DIVMTQSPLSLPVTPGEPASISCQASQELVHMNRNTYLQWYQQKPGQAPRLLIYKVSNRFPGVPDRFSGSGSGTDFTLKISRVEAEDVGVYYCAQGTSVPFTFGQGTKLEIK
As to B11, the fold change of affinity stood at 0 fold.

B12: H183/L072 VL T31H (antibody, name in Kabat numbering, V domains shown)
VH: QVQLVESGGGLVQPGRSLRLSCAASGFTFSNAWMHWVRQAPGKGLEWVAQIKDKGNAYAAYYAPSVKGRFTISRDDSKNSIYLQMNSLKTEDTAVYYCHYVHYASASTVLPAFGVDAWGQGTTVTVSS
VL: DIVMTQSPLSLPVTPGEPASISCQASQELVHMNRNHYLHWYQQKPGQAPRLLIYKVSNRFPGVPDRFSGSGSGTDFTLKISRVEAEDVGVYYCAQGTSVPFTFGQGTKLEIK
For the molecule B12, the fold change of affinity came to 0 fold.

B13: H183/L072 VL H34E (antibody, name in Kabat numbering, V domains shown)
VH: QVQLVESGGGLVQPGRSLRLSCAASGFTFSNAWMHWVRQAPGKGLEWVAQIKDKGNAYAAYYAPSVKGRFTISRDDSKNSIYLQMNSLKTEDTAVYYCHYVHYASASTVLPAFGVDAWGQGTTVTVSS
VL: DIVMTQSPLSLPVTPGEPASISCQASQELVHMNRNTYLEWYQQKPGQAPRLLIYKVSNRFPGVPDRFSGSGSGTDFTLKISRVEAEDVGVYYCAQGTSVPFTFGQGTKLEIK
Turning to B13, the fold change of affinity stood at 0 fold.

B14: H183/L072 VL A25E (antibody, name in Kabat numbering, V domains shown)
VH: QVQLVESGGGLVQPGRSLRLSCAASGFTFSNAWMHWVRQAPGKGLEWVAQIKDKGNAYAAYYAPSVKGRFTISRDDSKNSIYLQMNSLKTEDTAVYYCHYVHYASASTVLPAFGVDAWGQGTTVTVSS
VL: DIVMTQSPLSLPVTPGEPASISCQESQELVHMNRNTYLHWYQQKPGQAPRLLIYKVSNRFPGVPDRFSGSGSGTDFTLKISRVEAEDVGVYYCAQGTSVPFTFGQGTKLEIK
As for B14, the fold change of affinity stood at 0 fold.

B15: H183/L072 VL A25D (antibody, name in Kabat numbering, V domains shown)
VH: QVQLVESGGGLVQPGRSLRLSCAASGFTFSNAWMHWVRQAPGKGLEWVAQIKDKGNAYAAYYAPSVKGRFTISRDDSKNSIYLQMNSLKTEDTAVYYCHYVHYASASTVLPAFGVDAWGQGTTVTVSS
VL: DIVMTQSPLSLPVTPGEPASISCQDSQELVHMNRNTYLHWYQQKPGQAPRLLIYKVSNRFPGVPDRFSGSGSGTDFTLKISRVEAEDVGVYYCAQGTSVPFTFGQGTKLEIK
Consider B15, for which the fold change of affinity was 0 fold.

B16: H183/L072 VL A25K (antibody, name in Kabat numbering, V domains shown)
VH: QVQLVESGGGLVQPGRSLRLSCAASGFTFSNAWMHWVRQAPGKGLEWVAQIKDKGNAYAAYYAPSVKGRFTISRDDSKNSIYLQMNSLKTEDTAVYYCHYVHYASASTVLPAFGVDAWGQGTTVTVSS
VL: DIVMTQSPLSLPVTPGEPASISCQKSQELVHMNRNTYLHWYQQKPGQAPRLLIYKVSNRFPGVPDRFSGSGSGTDFTLKISRVEAEDVGVYYCAQGTSVPFTFGQGTKLEIK
On to B16, for which the fold change of affinity turned out to be 0 fold.

B17: H183/L072 VL Y32E (antibody, name in Kabat numbering, V domains shown)
VH: QVQLVESGGGLVQPGRSLRLSCAASGFTFSNAWMHWVRQAPGKGLEWVAQIKDKGNAYAAYYAPSVKGRFTISRDDSKNSIYLQMNSLKTEDTAVYYCHYVHYASASTVLPAFGVDAWGQGTTVTVSS
VL: DIVMTQSPLSLPVTPGEPASISCQASQELVHMNRNTELHWYQQKPGQAPRLLIYKVSNRFPGVPDRFSGSGSGTDFTLKISRVEAEDVGVYYCAQGTSVPFTFGQGTKLEIK
On to B17, for which the fold change of affinity came out at 0 fold.

B18: H183/L072 VL N28D (antibody, name in Kabat numbering, V domains shown)
VH: QVQLVESGGGLVQPGRSLRLSCAASGFTFSNAWMHWVRQAPGKGLEWVAQIKDKGNAYAAYYAPSVKGRFTISRDDSKNSIYLQMNSLKTEDTAVYYCHYVHYASASTVLPAFGVDAWGQGTTVTVSS
VL: DIVMTQSPLSLPVTPGEPASISCQASQELVHMDRNTYLHWYQQKPGQAPRLLIYKVSNRFPGVPDRFSGSGSGTDFTLKISRVEAEDVGVYYCAQGTSVPFTFGQGTKLEIK
B18: the fold change of affinity is 0 fold.

B19: H183/L072 VL L33D (antibody, name in Kabat numbering, V domains shown)
VH: QVQLVESGGGLVQPGRSLRLSCAASGFTFSNAWMHWVRQAPGKGLEWVAQIKDKGNAYAAYYAPSVKGRFTISRDDSKNSIYLQMNSLKTEDTAVYYCHYVHYASASTVLPAFGVDAWGQGTTVTVSS
VL: DIVMTQSPLSLPVTPGEPASISCQASQELVHMNRNTYDHWYQQKPGQAPRLLIYKVSNRFPGVPDRFSGSGSGTDFTLKISRVEAEDVGVYYCAQGTSVPFTFGQGTKLEIK
Take B19: the fold change of affinity stood at 0 fold.

B20: H183/L072 VL H34T (antibody, name in Kabat numbering, V domains shown)
VH: QVQLVESGGGLVQPGRSLRLSCAASGFTFSNAWMHWVRQAPGKGLEWVAQIKDKGNAYAAYYAPSVKGRFTISRDDSKNSIYLQMNSLKTEDTAVYYCHYVHYASASTVLPAFGVDAWGQGTTVTVSS
VL: DIVMTQSPLSLPVTPGEPASISCQASQELVHMNRNTYLTWYQQKPGQAPRLLIYKVSNRFPGVPDRFSGSGSGTDFTLKISRVEAEDVGVYYCAQGTSVPFTFGQGTKLEIK
B20: the fold change of affinity is 0 fold.
